Numbering of substitutions follows the chain as printed.
B1: ybeD_ec (dsDNA)
DNA 1: AAACACTTGAAAGTGTAATTTCCGTCCCCATATACTAAGCAT
DNA 2: ATGCTTAGTATATGGGGACGGAAATTACACTTTCAAGTGTTT
B2: ybeD_kp (dsDNA)
DNA 1: B1 DNA 1 with A1G, A17G, G24A, A38T, G39T
DNA 2: B1 DNA 2 with C4A, T5A, C19T, T26C, T42C
B3: ybeD_st1 (dsDNA)
DNA 1: B1 DNA 1 with A1G, A5G, A17G, C22T, A38T
DNA 2: B1 DNA 2 with T5A, G21A, T26C, T38C, T42C
B4: ybeD_es (dsDNA)
DNA 1: B1 DNA 1 with A1G, A17G, G24A, A38G, C40T
DNA 2: B1 DNA 2 with G3A, T5C, C19T, T26C, T42C
B5: ybeD_st2 (dsDNA)
DNA 1: CTGTGGCGGGAGTTGTTATTTTTTTTACGTAATGCCGGAGCT
DNA 2: AGCTCCGGCATTACGTAAAAAAAATAACAACTCCCGCCACAG
B6: lipA_ec (dsDNA)
DNA 1: ACGGAGTAATAGATGTTATCCGTAATGCATTTTGAAAAAGTA
DNA 2: TACTTTTTCAAAATGCATTACGGATAACATCTATTACTCCGT
B7: fadD_ec (dsDNA)
DNA 1: GTAAAGATAAAAATAAATAGTGACGCGCTTCGCAACCTTTTCGTTGGG
DNA 2: CCCAACGAAAAGGTTGCGAAGCGCGTCACTATTTATTTTTATCTTTAC
B8: lipBA_she (dsDNA)
DNA 1: CAAGGTCATAAAGTGTGATCTATCTTACATTTATGGCCAAGAG
DNA 2: CTCTTGGCCATAAATGTAAGATAGATCACACTTTATGACCTTG
B9: ybeD_yp (dsDNA)
DNA 1: ATTGGCCCCATATTGTGATTAATCTTATATTGCAAATAAGCT
DNA 2: AGCTTATTTGCAATATAAGATTAATCACAATATGGGGCCAAT

Key:
[1] = molecular target: CRP_ec (cAMP receptor protein) (Escherichia coli, UniProt P0ACJ8 1-210); assay: EMSA; cAMP (20 pmol); EMSA: 0.2 pmol DIG probe, CRP (2 pmol in Fig. 6), 20 pmol cAMP, Roche binding buffer (composition and pH not given), 20 uL (15 uL in Fig. S2), room temperature; settings: protein: recombinant; tags: His6 (pET28 construct, nickel purified); chain copies: 2; label: DIG-ddUTP 3' end (terminal transferase); blunt
[2] = molecular target: CRP_she (cAMP receptor protein) (UniProt Q8EJ49 1-211); assay: as above; settings: protein: recombinant; tags: N-terminal His6 (pET28a); chain copies: 2; label: DIG-ddUTP 3' end (terminal transferase); blunt

Binder	binding result [1]	binding result [2]
B1	no binding	
B2	binds	
B3	binds	
B4	binds	
B5	no binding	
B6	no binding	
B7	binds	binds
B8	binds	binds
B9	no binding	
